# From article PMC8960830
# Columns and labels:
# [1] = system: S9.6 Fab WT, PDB:7TQB_1+PDB:7TQB_2; test: fluorescence polarization; settings: FP: 25 mM Tris-HCl pH 7.5, 50 mM NaCl, 2 mM MgCl2, 21 C, ~5 nM FAM duplex, ITC same buffer at 25 C, SEC-MALS 150 mM NaCl
# [2] = system: S9.6 Fab WT, PDB:7TQB_1+PDB:7TQB_2; test: fluorescence polarization; settings: FP: 25 mM Tris-HCl pH 7.5, 50 mM NaCl, 2 mM MgCl2, 21 C, ~5 nM FAM duplex, ITC same buffer at 25 C, SEC-MALS 150 mM NaCl; remark: listed apart in the source
# [3] = system: S9.6 Fab WT, PDB:7TQB_1+PDB:7TQB_2; test: ITC; settings: 2 mM Mg2+, 25 C; FP: 25 mM Tris-HCl pH 7.5, 50 mM NaCl, 2 mM MgCl2, 21 C, ~5 nM FAM duplex; ITC same buffer at 25 C; SEC-MALS 150 mM NaCl
# [4] = system: S9.6 Fab WT, PDB:7TQB_1+PDB:7TQB_2; test: competition; settings: FP: 25 mM Tris-HCl pH 7.5, 50 mM NaCl, 2 mM MgCl2, 21 C, ~5 nM FAM duplex; ITC same buffer at 25 C; SEC-MALS 150 mM NaCl
# [5] = system: S9.6 Fab HC_Y54G, PDB:7TQB_1+PDB:7TQB_2; test: fluorescence polarization; settings: FP: 25 mM Tris-HCl pH 7.5, 50 mM NaCl, 2 mM MgCl2, 21 C, ~5 nM FAM duplex; ITC same buffer at 25 C; SEC-MALS 150 mM NaCl
# [6] = system: S9.6 Fab HC_Y101F, PDB:7TQB_1+PDB:7TQB_2; test: fluorescence polarization; settings: FP: 25 mM Tris-HCl pH 7.5, 50 mM NaCl, 2 mM MgCl2, 21 C, ~5 nM FAM duplex; ITC same buffer at 25 C; SEC-MALS 150 mM NaCl
# [7] = system: S9.6 Fab HC_Y54F, PDB:7TQB_1+PDB:7TQB_2; test: fluorescence polarization; settings: FP: 25 mM Tris-HCl pH 7.5, 50 mM NaCl, 2 mM MgCl2, 21 C, ~5 nM FAM duplex; ITC same buffer at 25 C; SEC-MALS 150 mM NaCl
# [8] = system: S9.6 Fab HC_Y54W, PDB:7TQB_1+PDB:7TQB_2; test: fluorescence polarization; settings: FP: 25 mM Tris-HCl pH 7.5, 50 mM NaCl, 2 mM MgCl2, 21 C, ~5 nM FAM duplex; ITC same buffer at 25 C; SEC-MALS 150 mM NaCl
# [9] = system: S9.6 Fab HC_Y54R, PDB:7TQB_1+PDB:7TQB_2; test: fluorescence polarization; settings: FP: 25 mM Tris-HCl pH 7.5, 50 mM NaCl, 2 mM MgCl2, 21 C, ~5 nM FAM duplex; ITC same buffer at 25 C; SEC-MALS 150 mM NaCl
# [10] = system: S9.6 Fab HC_Y54D, PDB:7TQB_1+PDB:7TQB_2; test: fluorescence polarization; settings: FP: 25 mM Tris-HCl pH 7.5, 50 mM NaCl, 2 mM MgCl2, 21 C, ~5 nM FAM duplex; ITC same buffer at 25 C; SEC-MALS 150 mM NaCl
# [11] = system: S9.6 Fab HC_Y54H, PDB:7TQB_1+PDB:7TQB_2; test: fluorescence polarization; settings: FP: 25 mM Tris-HCl pH 7.5, 50 mM NaCl, 2 mM MgCl2, 21 C, ~5 nM FAM duplex; ITC same buffer at 25 C; SEC-MALS 150 mM NaCl
# [12] = system: S9.6 Fab HC_Y54Q, PDB:7TQB_1+PDB:7TQB_2; test: fluorescence polarization; settings: FP: 25 mM Tris-HCl pH 7.5, 50 mM NaCl, 2 mM MgCl2, 21 C, ~5 nM FAM duplex; ITC same buffer at 25 C; SEC-MALS 150 mM NaCl
# [13] = system: S9.6 Fab HC_S31A, PDB:7TQB_1+PDB:7TQB_2; test: fluorescence polarization; settings: FP: 25 mM Tris-HCl pH 7.5, 50 mM NaCl, 2 mM MgCl2, 21 C, ~5 nM FAM duplex; ITC same buffer at 25 C; SEC-MALS 150 mM NaCl
# [14] = system: S9.6 Fab HC_Y54A, PDB:7TQB_1+PDB:7TQB_2; test: fluorescence polarization; settings: FP: 25 mM Tris-HCl pH 7.5, 50 mM NaCl, 2 mM MgCl2, 21 C, ~5 nM FAM duplex; ITC same buffer at 25 C; SEC-MALS 150 mM NaCl
# [15] = system: S9.6 Fab HC_Y32A, PDB:7TQB_1+PDB:7TQB_2; test: fluorescence polarization; settings: FP: 25 mM Tris-HCl pH 7.5, 50 mM NaCl, 2 mM MgCl2, 21 C, ~5 nM FAM duplex; ITC same buffer at 25 C; SEC-MALS 150 mM NaCl
# [16] = system: S9.6 Fab HC_S31G, PDB:7TQB_1+PDB:7TQB_2; test: fluorescence polarization; settings: FP: 25 mM Tris-HCl pH 7.5, 50 mM NaCl, 2 mM MgCl2, 21 C, ~5 nM FAM duplex; ITC same buffer at 25 C; SEC-MALS 150 mM NaCl
# [17] = system: S9.6 Fab HC_Y54M, PDB:7TQB_1+PDB:7TQB_2; test: fluorescence polarization; settings: FP: 25 mM Tris-HCl pH 7.5, 50 mM NaCl, 2 mM MgCl2, 21 C, ~5 nM FAM duplex; ITC same buffer at 25 C; SEC-MALS 150 mM NaCl
# [18] = system: S9.6 Fab HC_Y54V, PDB:7TQB_1+PDB:7TQB_2; test: fluorescence polarization; settings: FP: 25 mM Tris-HCl pH 7.5, 50 mM NaCl, 2 mM MgCl2, 21 C, ~5 nM FAM duplex; ITC same buffer at 25 C; SEC-MALS 150 mM NaCl
# [19] = system: S9.6 Fab HC_Y54L, PDB:7TQB_1+PDB:7TQB_2; test: fluorescence polarization; settings: FP: 25 mM Tris-HCl pH 7.5, 50 mM NaCl, 2 mM MgCl2, 21 C, ~5 nM FAM duplex; ITC same buffer at 25 C; SEC-MALS 150 mM NaCl
sequence,measurement,setting,value
CAGACAGACA / UGUCUGUCUG [10-bp hybrid 50% GC],Kd,[1],3110 nM
CAGACGGACA / UGUCCGUCUG [10-bp hybrid 60% GC],Kd,[1],610 nM
CGGACGGACA / UGUCCGUCCG [10-bp hybrid 70% GC],Kd,[1],420 nM
CGGACGGACG / CGUCCGUCCG [10-bp hybrid 80% GC],Kd,[1],570 nM
CGGCCGGACG / CGUCCGGCCG [10-bp hybrid 90% GC],Kd,[1],1020 nM
CGTGTCAGACAAG / CTTGTCUGACACG [13-bp dsDNA with 2'-OH at U7-G8-A9],Kd,"[2]; text: Kd > 7 uM, weakly bound, strand 2: ribonucleotides at positions 7-9, rest DNA",7000 nM
CGTGTCAGACAAG / CTUGUCUGACACG,Kd,"[2]; table fit 20.6 +/- 5.8 uM, RNA strand: deoxy at positions 2, 4, 6, 8, 10, 12 (12 inferred, name is cut in the material)",> 21000 nM
CGTGTCAGACAAG / CUTGUCUGACACG,Kd,"[2]; RNA strand: deoxy at positions 3, 6, 9, 12",380 nM
CGTGTCAGACAAG / CUUGUCUGACACG [13-bp DNA-RNA hybrid],Kd,[3],415 nM
same,IC50,[4],450 nM
same,binding signal (fold lower affinity than WT),[5],58
same,binding signal (fold lower binding than WT),[6],< 2
same,Kd,[2]; 2 mM Mg2+,232 nM
same,Kd,[7],400 nM
same,Kd,[8],760 nM
same,Kd,[9],150 nM
same,Kd,[10],5160 nM
same,Kd,[11],360 nM
same,Kd,[12],730 nM
same,Kd,[13],140 nM
same,Kd,[14],2650 nM
same,Kd,[15],25400 nM
same,Kd,[1]; 2 mM Mg2+,190 nM
same,Kd,[16],170 nM
CGTGTCTGACAAG / CUUGUCAGACACG [13-bp hybrid rU7A:dA7T],Kd,[1],110 nM
"CGTGUCAGACAAG / CUUGUCUGACACG [13-bp hybrid, 2'-OH (uridine) at dT5]",Kd,[1]; DNA strand: ribo-U at position 5,140 nM
"CGUGUCAGACAAG / CUUGUCUGACACG [13-bp hybrid, 2'-OH at dT3-dG4-dT5-dC6-dA7]",Kd,[1]; DNA strand: ribonucleotides at positions 3-7,100 nM
CUUGUCUGACACG / CGUGUCAGACAAG [13-bp dsRNA],IC50,[4],57000 nM
same,Kd,[2]; 2 mM Mg2+,3790 nM
same,Kd,[7],8300 nM
same,Kd,[8],11800 nM
same,Kd,[9],1910 nM
same,Kd,[17],4530 nM
same,Kd,[11],4300 nM
same,Kd,[18],1610 nM
same,Kd,[12],1640 nM
same,Kd,[19],3990 nM
same,Kd,[14],2350 nM
